Reference: patent publication US20170204158A1 (Regeneron, published 2017)
Where “and” joins values, the source holds several entries; their conditions need not be identical. Identical values can stand only once.

T1: mouse IL-33 (R&D Systems, # 3626-ML-010/CF) (mouse, UniProt Q8BVZ5 109-266)
T1 construct: Commercial protein; also called mIL-33; mIL33
T1 sequence (looked up): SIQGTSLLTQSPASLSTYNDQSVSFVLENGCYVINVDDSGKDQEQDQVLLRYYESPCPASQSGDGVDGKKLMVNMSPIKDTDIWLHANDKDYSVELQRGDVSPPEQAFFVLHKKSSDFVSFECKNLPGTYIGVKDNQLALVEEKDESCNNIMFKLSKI

T2: human IL-33 (R&D Systems, # 3625-IL-010/CF) (human, UniProt O95760 112-270, biotinylated in the blocking ELISA of Example 3 (sites not given))
T2 construct: Commercial protein; also called hIL-33; biot-hIL-33
T2 sequence (looked up): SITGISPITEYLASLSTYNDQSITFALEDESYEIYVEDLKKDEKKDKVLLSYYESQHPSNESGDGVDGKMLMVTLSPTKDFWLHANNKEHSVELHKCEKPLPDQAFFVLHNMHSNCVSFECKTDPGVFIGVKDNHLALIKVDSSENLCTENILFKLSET

T3: human ST2 (amino acids 1-556 of accession number NP_057316) on HEK293/hST2/NFkB-luciferase cells (human, UniProt Q01638 19-556)
T3 sequence (looked up): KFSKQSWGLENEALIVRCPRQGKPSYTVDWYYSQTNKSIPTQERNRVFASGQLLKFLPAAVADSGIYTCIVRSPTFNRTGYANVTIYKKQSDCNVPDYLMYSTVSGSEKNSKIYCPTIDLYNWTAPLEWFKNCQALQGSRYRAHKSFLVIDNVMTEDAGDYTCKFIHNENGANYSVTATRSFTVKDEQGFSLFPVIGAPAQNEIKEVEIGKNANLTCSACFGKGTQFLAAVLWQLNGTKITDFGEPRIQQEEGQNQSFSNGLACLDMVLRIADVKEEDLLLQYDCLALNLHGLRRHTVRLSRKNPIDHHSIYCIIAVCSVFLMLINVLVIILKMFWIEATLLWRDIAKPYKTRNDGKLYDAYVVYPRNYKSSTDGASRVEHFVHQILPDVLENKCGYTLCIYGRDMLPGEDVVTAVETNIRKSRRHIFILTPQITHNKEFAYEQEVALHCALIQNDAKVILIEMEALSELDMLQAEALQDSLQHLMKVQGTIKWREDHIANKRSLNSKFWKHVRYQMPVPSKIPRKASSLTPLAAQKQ

B1: mST2-mIL1RAcP-mFc (Fc fusion)
chain: SKSSWGLENEALIVRCPQRGRSTYPVEWYYSDTNESIPTQKRNRIFVSRDRLKFLPARVEDSGIYACVIRSPNLNKTGYLNVTIHKKPPSCNIPDYLMYSTVRGSDKNFKITCPTIDLYNWTAPVQWFKNCKALQEPRFRAHRSYLFIDNVTHDDEGDYTCQFTHAENGTNYIVTATRSFTVEEKGFSMFPVITNPPYNHTMEVEIGKPASIACSACFGKGSHFLADVLWQINKTVVGNFGEARIQEEEGRNESSSNDMDCLTSVLRITGVTEKDLSLEYDCLALNLHGMIRHTIRLRRKQPIDHRSERCDDWGLDTMRQIQVFEDEPARIKCPLFEHFLKYNYSTAHSSGLTLIWYWTRQDRDLEEPINFRLPENRISKEKDVLWFRPTLLNDTGNYTCMLRNTTYCSKVAFPLEVVQKDSCFNSAMRFPVHKMYIEHGIHKITCPNVDGYFPSSVKPSVTWYKGCTEIVDFHNVLPEGMNLSFFIPLVSNNGNYTCVVTYPENGRLFHLTRTVTVKVVGSPKDALPPQIYSPNDRVVYEKEPGEELVIPCKVYFSFIMDSHNEVWWTIDGKKPDDVTVDITINESVSYSSTEDETRTQILSIKKVTPEDLRRNYVCHARNTKGEAEQAAKVKQKVIPPRYTVESGEPRGPTIKPCPPCKCPAPNLLGGPSVFIFPPKIKDVLMISLSPIVTCVVVDVSEDDPDVQISWFVNNVEVHTAQTQTHREDYNSTLRVVSALPIQHQDWMSGKEFKCKVNNKDLPAPIERTISKPKGSVRAPQVYVLPPPEEEMTKKQVTLTCMVTDFMPEDIYVEWTNNGKTELNYKNTEPVLDSDGSYFMYSKLRVEKKNWVERNSYSCSVVHEGLHNHHTTKSFSRTPGK
notes: also called fourth IL-33 antagonist; mouse IL-33 Trap
B2: hST2-mFc (Fc fusion)
chain: KFSKQSWGLENEALIVRCPRQGKPSYTVDWYYSQTNKSIPTQERNRVFASGQLLKFLPAAVADSGIYTCIVRSPTFNRTGYANVTIYKKQSDCNVPDYLMYSTVSGSEKNSKIYCPTIDLYNWTAPLEWFKNCQALQGSRYRAHKSFLVIDNVMTEDAGDYTCKFIHNENGANYSVTATRSFTVKDEQGFSLFPVIGAPAQNEIKEVEIGKNANLTCSACFGKGTQFLAAVLWQLNGTKITDFGEPRIQQEEGQNQSFSNGLACLDMVLRIADVKEEDLLLQYDCLALNLHGLRRHTVRLSRKNPIDHHSEPRGPTIKPCPPCKCPAPNLLGGPSVFIFPPKIKDVLMISLSPIVTCVVVDVSEDDPDVQISWFVNNVEVHTAQTQTHREDYNSTLRVVSALPIQHQDWMSGKEFKCKVNNKDLPAPIERTISKPKGSVRAPQVYVLPPPEEEMTKKQVTLTCMVTDFMPEDIYVEWTNNGKTELNYKNTEPVLDSDGSYFMYSKLRVEKKNWVERNSYSCSVVHEGLHNHHTTKSFSRTPGK
notes: also called second IL-33 antagonist; ST2 receptor protein
B3: monkey IL-33 expressed with C-terminal hexahistidine tag (MfIL-33-6His) (ligand)
chain: SITGISPITESLASLSTYNDQSITFALEDESYEIYVEDLKKDKKKDKVLLSYYESQHPSSESGDGVDGKMLMVTLSPTKDFWLQANNKEHSVELHKCEKPLPDQAFFVLHNRSFNCVSFECKTDPGVFIGVKDNHLALIKVDYSENLGSENILFKLSEILEHHHHHH

What was measured:
[1] = target: B3; assay: SPR (Biacore T-200), 37 C; Fc fusion captured by anti-Fc antibody, MfIL-33-6His injected
Procedure: (§1) The Biacore sensor surface was first derivatized by amine coupling a polyclonal rabbit anti-mouse antibody (GE, # BR-1008-38) or with a monoclonal mouse anti-human Fc antibody (GE, # BR-1008-39) to capture IL-33 Trap and receptor proteins with a C-terminal mouse IgG2a Fc tag or a C-terminal human IgG1 Fc tag, respectively. Kinetic experiments were carried out in 0.01 M HEPES pH 7.4, 0.15 M NaCl, 3 mM EDTA, and 0.005% v/v Surfactant Tween-20 (HBST running buffer). Different concentrations of human IL-33, mouse IL-33 or MfIL-33-6His prepared in HBST running buffer (ranging from 60 nM to 27.4 pM, 3-fold dilutions, for Trap proteins and ranging from 60 nM to 0.25 nM, 3-fold dilutions, for ST2 receptor proteins) were injected over the captured IL-33 Trap and receptor protein surfaces at a flow rate of 50 μL/minute. Association of different IL-33 proteins to the different capture surfaces was monitored for 7 minutes for Trap proteins or 4 minutes for ST2 receptor proteins and their dissociation in HBST running buffer was monitored for 14 minutes for Trap proteins or 8 minutes for ST2 receptor proteins. Kinetic association (ka) and dissociation (kd) rate constants were determined by fitting the real-time binding sensorgrams to a 1:1 binding model using Scrubber 2.0c curve-fitting software. Binding dissociation equilibrium constants (KD) and dissociative half-lives (t½) were calculated from the kinetic rate constants as: […]

[2] = target: T1, mouse IL-33 (R&D Systems, # …); assay: SPR (Biacore T-200), 37 C; Fc fusion captured by anti-Fc antibody, mouse IL-33 injected
Procedure: as §1

[3] = target: T2, human IL-33 (R&D Systems, # …); assay: SPR (Biacore T-200), 37 C; Fc fusion captured by anti-Fc antibody, IL-33 injected
Procedure: as §1

[4] = target: T2, human IL-33 (R&D Systems, # …); assay: SPR (Biacore T-200), 25 C; Fc fusion captured by anti-Fc antibody, IL-33 injected
Procedure: as §1

[5] = target: B3; assay: SPR (Biacore T-200), 25 C; Fc fusion captured by anti-Fc antibody, MfIL-33-6His injected
Procedure: as §1

[6] = target: T1, mouse IL-33 (R&D Systems, # …); assay: SPR (Biacore T-200), 25 C; Fc fusion captured by anti-Fc antibody, mouse IL-33 injected
Procedure: as §1

[7] = target: T2, human IL-33 (R&D Systems, # …); assay: competition ELISA; antagonist pre-mixed with 20 pM biotin-hIL-33, binding to plate-coated human ST2-Fc
Procedure: (§2) The ability of exemplary IL-33 antagonists of the invention to block human IL-33 (hIL-33) binding to the human ST2 receptor was measured using a competition sandwich ELISA. A portion of human ST2 protein ecto domain that was expressed with a C-terminal mouse Fc tag (SEQ ID NO:2) was coated at a concentration of 1 μg/mL in PBS buffer on a 96-well microtiter plate overnight at 4° C. […] Biotinylated hIL-33 protein (R&D systems, #3625-IL/CF) (biot-hIL-33) was added to achieve a constant final concentration of 20 pM to serial dilutions of IL-33 antagonists ranging from 0 to 100 nM. The mixture was incubated for 1 hour at room temperature (RT) before transfer to the hST2-hFc coated microtiter plates. After incubation for 1 hour at RT, the wells were then washed, and plate-bound biot-hIL-33 was detected with HRP-conjugated streptavidin (Thermo Scientific, # N200). All samples were developed with a TMB solution (BD biosciences, # 51-2607KC) to produce a colorimetric reaction and then quenched by acidification with 1M sulfuric acid before measuring absorbance at 450 nm on a Victor X5 plate reader (PerkinElmer). Data analysis was performed using a sigmoidal dose-response model within Prism™ software. […] Maximum blocking values represent the ability of the antagonists to block IL-33 binding relative to baseline. The absorbance measured at the constant amount of hIL-33 on the dose curve was defined as 0% blocking and the absorbance with no added IL-33 was defined as 100% blocking. The absorbance values of the wells containing the highest concentration tested for each antagonist were used to determine the maximum blocking percent.

[8] = target: T2, human IL-33 (R&D Systems, # …); assay: cell-based or functional assay
[9] = target: B3; assay: cell-based or functional assay
[10] = target: T1, mouse IL-33 (R&D Systems, # …); assay: cell-based or functional assay
[11] = target: T2, human IL-33 (R&D Systems, # …); assay: competition ELISA; antagonist pre-mixed with 20 pM biotin-hIL-33, binding to plate-coated human ST2-Fc; highest concentration tested
Procedure: as §2

[12] = target: T3, human ST2 (amino acids 1-556 of …); assay: cell-based or functional assay

| 60 nM Human IL-33 Bound (RU) [4] [RU] | Kd [4] [nM] | koff [4] [s⁻¹] | kon [4] [M⁻¹ s⁻¹] | t1/2 [4] [min] | 60 nM Mouse IL-33 Bound (RU) [6] [RU] | Kd [6] [nM] | koff [6] [s⁻¹] | kon [6] [M⁻¹ s⁻¹] | t1/2 [6] [min] | IC50 [7] [nM] | IC50 (M), inhibition of 5 pM human IL-33 activation of HEK293/hST2/NFkB-luciferase cells [8] [M] | IC50 (M), inhibition of 5 pM monkey IL-33 activation of HEK293/hST2/NFkB-luciferase cells [9] [M] | IC50 (M), inhibition of 30 pM mouse IL-33 activation of HEK293/hST2/NFkB-luciferase cells [10] [M] | % Maximum blocking [11] [%] | Binder | other results |
| --- | --- | --- | --- | --- | --- | --- | --- | --- | --- | --- | --- | --- | --- | --- | --- | --- |
| 22 | 0.0709 | 0.00129 | 1.82e+07 | 9 | 22 | 0.0105 | 4.94e-05 | 4.73e+06 | 234 | 0.112 | 4.8e-10 | 6.4e-11 | 8.7e-12 | 97 | B1 | 60 nM Monkey IL-33 Bound (RU) [1]: 21 RU; Kd [1]: 0.19 nM; koff [1]: 0.00117 s⁻¹; kon [1]: 6.16e+06 M⁻¹ s⁻¹; t1/2 [1]: 10 min; 60 nM Mouse IL-33 Bound (RU) [2]: 20 RU; Kd [2]: 0.0213 nM; koff [2]: 0.000128 s⁻¹; kon [2]: 6e+06 M⁻¹ s⁻¹; t1/2 [2]: 90 min; 60 nM Human IL-33 Bound (RU) [3]: 20 RU; Kd [3]: 0.353 nM; koff [3]: 0.00322 s⁻¹; kon [3]: 9.11e+06 M⁻¹ s⁻¹; t1/2 [3]: 4 min; 60 nM Monkey IL-33 Bound (RU) [5]: 23 RU; Kd [5]: 0.0535 nM; koff [5]: 0.000244 s⁻¹; kon [5]: 4.55e+06 M⁻¹ s⁻¹; t1/2 [5]: 47 min |
| 24 | 0.0536 | 0.000307 | 5.72e+06 | 38 | 18 | 0.0882 | 0.00035 | 3.97e+06 | 33 | 0.0169 | 1.2e-11 | 5.5e-12 | 1.4e-10 | 100 | B2 | – |
| – | – | – | – | – | – | – | – | – | – | – | – | – | – | – | B3 | EC50 (M), activation of HEK293/hST2/NFkB-luciferase cells [12]: 1.7e-12 M and 1.3e-12 M |
